The results in this text go back to PMC9758056.

Assay [1] addresses Taxol-stabilized microtubules from porcine brain tubulin (porcine) (UniProt P02550). Briefly: co-sedimentation; 200 nM LRRK^RCKW with various concentrations of taxol-stabilized microtubules, 10 minutes at room temperature, 20 mM Hepes pH 7.4, 110 mM NaCl (also 100 and 150 mM NaCl), 0.5 mM MgCl2, 0.5 mM TCEP, 5% glycerol, 20 μM GDP, 20 μM taxol; pelleted at 108,628 g; depletion from the supernatant on SYPRO-Red gels.

The target in assay [2] is Subtilisin-treated taxol-stabilized microtubules (C-terminal tubulin tails cleaved), labeled with Alexa Fluor 488 and biotin (bovine) (UniProt Q6B856). Briefly: widefield fluorescence microscopy of labeled protein on tethered microtubules; Alexa Fluor 488-labeled microtubules tethered to a coverslip by biotin-streptavidin; TMR-labeled LRRK^RCKW (6.25 nM–50 nM; 100 nM for the NaCl series) incubated 5 minutes in 20 mM Hepes pH 7.4, 80 mM NaCl, 0.5 mM MgCl2, 0.5 mM TCEP, 5% glycerol, 20 μM GDP; also increasing sodium chloride.
Chain of Subtilisin-treated taxol-stabilized microtubules (C-terminal tubulin tails cleaved), labeled with Alexa Fluor 488 and biotin (bovine) (Q6B856 whole entry, looked up): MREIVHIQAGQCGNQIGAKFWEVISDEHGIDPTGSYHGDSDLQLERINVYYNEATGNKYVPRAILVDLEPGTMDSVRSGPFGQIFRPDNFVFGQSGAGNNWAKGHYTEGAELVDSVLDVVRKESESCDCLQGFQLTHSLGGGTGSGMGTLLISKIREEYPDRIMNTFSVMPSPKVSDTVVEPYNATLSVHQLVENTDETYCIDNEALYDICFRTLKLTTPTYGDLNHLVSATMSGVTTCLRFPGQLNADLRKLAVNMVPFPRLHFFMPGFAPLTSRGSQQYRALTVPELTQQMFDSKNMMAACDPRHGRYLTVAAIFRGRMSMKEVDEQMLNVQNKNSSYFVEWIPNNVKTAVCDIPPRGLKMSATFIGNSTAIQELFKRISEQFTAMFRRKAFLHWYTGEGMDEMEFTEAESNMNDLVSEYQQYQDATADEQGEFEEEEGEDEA

Chain of TMR-LRRK2^RCKW (LRRK2^RCKW randomly labeled with BODIPY TMR-X) (Q5S007 1327-2527): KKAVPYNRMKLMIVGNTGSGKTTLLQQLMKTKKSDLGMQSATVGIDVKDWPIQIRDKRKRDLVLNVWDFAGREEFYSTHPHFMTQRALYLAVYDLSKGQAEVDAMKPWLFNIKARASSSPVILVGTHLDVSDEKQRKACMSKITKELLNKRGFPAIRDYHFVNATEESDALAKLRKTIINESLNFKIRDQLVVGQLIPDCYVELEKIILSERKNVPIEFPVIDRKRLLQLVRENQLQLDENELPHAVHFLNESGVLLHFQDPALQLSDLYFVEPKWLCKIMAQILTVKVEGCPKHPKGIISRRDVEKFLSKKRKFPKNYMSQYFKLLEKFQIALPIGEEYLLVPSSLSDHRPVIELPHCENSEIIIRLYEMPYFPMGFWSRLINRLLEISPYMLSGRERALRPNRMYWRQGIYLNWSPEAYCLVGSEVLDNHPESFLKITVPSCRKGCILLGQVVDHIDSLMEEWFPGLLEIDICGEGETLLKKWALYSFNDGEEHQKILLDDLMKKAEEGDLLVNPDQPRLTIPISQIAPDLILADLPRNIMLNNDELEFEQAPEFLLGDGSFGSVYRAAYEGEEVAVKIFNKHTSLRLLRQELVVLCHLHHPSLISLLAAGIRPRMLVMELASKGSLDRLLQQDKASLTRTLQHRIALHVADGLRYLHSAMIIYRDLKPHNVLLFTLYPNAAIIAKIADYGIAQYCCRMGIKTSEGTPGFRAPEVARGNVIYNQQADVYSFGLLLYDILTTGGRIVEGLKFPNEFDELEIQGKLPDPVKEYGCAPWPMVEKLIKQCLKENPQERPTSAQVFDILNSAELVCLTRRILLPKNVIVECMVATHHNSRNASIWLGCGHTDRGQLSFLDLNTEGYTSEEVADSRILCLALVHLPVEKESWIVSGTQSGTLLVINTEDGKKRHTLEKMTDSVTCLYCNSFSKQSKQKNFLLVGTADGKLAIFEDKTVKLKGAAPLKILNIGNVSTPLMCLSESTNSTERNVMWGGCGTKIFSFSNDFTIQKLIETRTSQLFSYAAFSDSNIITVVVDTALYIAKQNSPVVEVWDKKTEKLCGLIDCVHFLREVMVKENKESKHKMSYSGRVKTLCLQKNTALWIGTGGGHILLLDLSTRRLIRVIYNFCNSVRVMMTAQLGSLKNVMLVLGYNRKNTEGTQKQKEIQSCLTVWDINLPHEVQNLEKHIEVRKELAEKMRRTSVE

“LRRK2^RCKW-R1731D (from UniProt Q5S007 1327-2527) (domain or fragment)” had a reduction of pelleting with microtubules against WT LRRK2^RCKW in assay [1] of 50%. “TMR-LRRK2^RCKW (LRRK2^RCKW randomly labeled with BODIPY TMR-X) (from UniProt Q5S007 1327-2527) (domain or fragment)” registered a decrease of microtubule binding against untreated microtubules in assay [2] of 50%.
